{"source": "patent US20240287144A1", "assay_in_all_cases": "cell-based or functional assay", "parameters_in_all_cases": "unit not given beside the values", "key": {"[1]": {"target": "HIV-1 Env of virus MW965.26.SG3 (Clade C) (HIV-1 strain MW965.26)"}, "[2]": {"target": "HIV-1 Env of virus 242-14.SG3 (Clade AG) (HIV-1 strain 242-14)"}, "[3]": {"target": "HIV-1 Env of virus 001428-2.42.SG3 (Clade C) (HIV-1 strain 001428-2.42)"}, "[4]": {"target": "HIV-1 Env of virus BG505.W6M.C2.T332N.SG3 (Clade A) (HIV-1 strain BG505)"}, "[5]": {"target": "HIV-1 Env of virus 3301.V1.C24.SG3 (Clade AC) (HIV-1 strain 3301.V1.C24)"}, "[6]": {"target": "HIV-1 Env of virus DJ263.8.SG3 (Clade AG) (HIV-1 strain DJ263.8)"}, "[7]": {"target": "HIV-1 Env of virus CNE58.SG3 (Clade C) (HIV-1 strain CNE58)"}, "[8]": {"target": "HIV-1 Env of virus HxB2.DG.SG3 (Clade B) (HIV-1 strain HxB2)"}, "[9]": {"target": "HIV-1 Env of virus ZM106.9.SG3 (Clade C) (HIV-1 strain ZM106.9)"}, "[10]": {"target": "HIV-1 Env of virus 25925-2.22.SG3 (Clade C) (HIV-1 strain 25925-2.22)"}}, "data": [{"substance": "VRC01 (antibody)", "values": [{"measurement": "ID50 (virus neutralization, ctrl mAb; run with wk 6 sera)", "setting": "[1]", "value": 0.025}, {"measurement": "ID50 (virus neutralization, ctrl mAb; run with wk 18 sera)", "setting": "[1]", "value": 0.041}, {"measurement": "ID50 (virus neutralization, ctrl mAb; run with wk 6 sera)", "setting": "[2]", "value": "> 50"}, {"measurement": "ID50 (virus neutralization, ctrl mAb; run with wk 18 sera)", "setting": "[2]", "value": "> 50"}, {"measurement": "ID50 (virus neutralization, ctrl mAb; run with wk 6 sera)", "setting": "[3]", "value": "< 0.05"}, {"measurement": "ID50 (virus neutralization, ctrl mAb; run with wk 18 sera)", "setting": "[3]", "value": "< 0.05"}, {"measurement": "ID50 (virus neutralization, ctrl mAb; run with wk 6 sera)", "setting": "[4]", "value": 0.097}, {"measurement": "ID50 (virus neutralization, ctrl mAb; run with wk 18 sera)", "setting": "[4]", "value": 0.068}, {"measurement": "ID50 (virus neutralization, ctrl mAb; run with wk 6 sera)", "setting": "[5]", "value": 0.305}, {"measurement": "ID50 (virus neutralization, ctrl mAb; run with wk 18 sera)", "setting": "[5]", "value": 0.358}, {"measurement": "ID50 (virus neutralization, ctrl mAb; run with wk 6 sera)", "setting": "[6]", "value": 0.095}, {"measurement": "ID50 (virus neutralization, ctrl mAb; run with wk 18 sera)", "setting": "[6]", "value": 0.127}, {"measurement": "ID50 (virus neutralization, ctrl mAb; run with wk 6 sera)", "setting": "[7]", "value": 0.398}, {"measurement": "ID50 (virus neutralization, ctrl mAb; run with wk 18 sera)", "setting": "[7]", "value": 0.435}, {"measurement": "ID50 (virus neutralization, ctrl mAb; run with wk 6 sera)", "setting": "[8]", "value": 0.07}, {"measurement": "ID50 (virus neutralization, ctrl mAb; run with wk 18 sera)", "setting": "[8]", "value": "< 0.05"}, {"measurement": "ID50 (virus neutralization, ctrl mAb; run with wk 6 sera)", "setting": "[9]", "value": 0.472}, {"measurement": "ID50 (virus neutralization, ctrl mAb; run with wk 18 sera)", "setting": "[9]", "value": 0.486}, {"measurement": "ID50 (virus neutralization, ctrl mAb; run with wk 6 sera)", "setting": "[10]", "value": 2.91}, {"measurement": "ID50 (virus neutralization, ctrl mAb; run with wk 18 sera)", "setting": "[10]", "value": 1.07}]}]}
